Data on two molecules can be found in paper PMC548335 (Nucleic Acids Research, 2005).

Experiment [1] deals with T1, GST-Pta1 (yeast, UniProt Q01329 1-785).
T1 sequence: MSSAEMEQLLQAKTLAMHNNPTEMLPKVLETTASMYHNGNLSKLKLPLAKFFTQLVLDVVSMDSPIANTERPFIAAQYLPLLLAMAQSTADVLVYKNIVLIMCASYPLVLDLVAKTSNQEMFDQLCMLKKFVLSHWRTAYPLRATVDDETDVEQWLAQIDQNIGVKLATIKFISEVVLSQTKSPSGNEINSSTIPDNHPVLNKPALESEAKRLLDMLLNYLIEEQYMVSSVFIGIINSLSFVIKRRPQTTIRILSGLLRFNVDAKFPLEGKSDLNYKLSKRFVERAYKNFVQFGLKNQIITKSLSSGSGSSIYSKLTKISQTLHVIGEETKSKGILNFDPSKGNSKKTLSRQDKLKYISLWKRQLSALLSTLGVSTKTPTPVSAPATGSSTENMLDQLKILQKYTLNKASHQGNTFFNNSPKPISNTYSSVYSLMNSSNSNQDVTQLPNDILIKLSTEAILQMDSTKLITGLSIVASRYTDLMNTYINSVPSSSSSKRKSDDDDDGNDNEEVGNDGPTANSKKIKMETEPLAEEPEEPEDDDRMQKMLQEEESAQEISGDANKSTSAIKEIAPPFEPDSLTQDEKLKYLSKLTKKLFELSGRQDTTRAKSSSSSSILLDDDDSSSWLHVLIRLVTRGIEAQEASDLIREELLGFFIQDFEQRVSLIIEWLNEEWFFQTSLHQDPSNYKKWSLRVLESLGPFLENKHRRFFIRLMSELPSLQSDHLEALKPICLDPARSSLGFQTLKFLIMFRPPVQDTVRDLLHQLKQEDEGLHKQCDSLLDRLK
Nature of the experiment: pull-down.

In experiment [2] the target is T2, GST-hTFIIB (human, UniProt Q00403 1-316).
T2 sequence: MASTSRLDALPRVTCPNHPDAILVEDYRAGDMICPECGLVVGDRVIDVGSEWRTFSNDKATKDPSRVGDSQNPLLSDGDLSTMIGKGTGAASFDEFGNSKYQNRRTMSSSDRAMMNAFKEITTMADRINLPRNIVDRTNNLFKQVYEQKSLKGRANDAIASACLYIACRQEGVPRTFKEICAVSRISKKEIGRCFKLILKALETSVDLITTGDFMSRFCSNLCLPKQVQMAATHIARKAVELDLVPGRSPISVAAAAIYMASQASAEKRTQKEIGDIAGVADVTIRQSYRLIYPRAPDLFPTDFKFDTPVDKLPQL
Nature of the experiment: pull-down.

B1: Hat-hSsu72 (natural protein)
chain: MPSSPLRVAVVCSSNQNRSMEAHNILSKRGFSVRSFGTGTHVKLPGPAPDKPNVYDFKTTYDQMYNDLLRKDKELYTQNGILHMLDRNKRIKPRPERFQNCKDLFDLILTCEERVYDQVVEDLNSREQETCQPVHVVNVDIQDNHEEATLGAFLICELCQCIQHTEDMENEIDELLQEFEEKSGRTFLHTVCFY
Regarding B1, the binding result in experiment [1] and in experiment [2] was “binds” each time.

B2: Hat-hSsu72Δ1-12 (domain or fragment)
chain: SSNQNRSMEAHNILSKRGFSVRSFGTGTHVKLPGPAPDKPNVYDFKTTYDQMYNDLLRKDKELYTQNGILHMLDRNKRIKPRPERFQNCKDLFDLILTCEERVYDQVVEDLNSREQETCQPVHVVNVDIQDNHEEATLGAFLICELCQCIQHTEDMENEIDELLQEFEEKSGRTFLHTVCFY
Regarding B2, the binding result in experiment [1] and in experiment [2] was “binds” each time.
